Laboratory results taken from the supplement of paper PMC12042874.
± gives the uncertainty stated by the source.

Assay: amyloid nucleation score (Sup35N fusion, yeast selection) (log enrichment); library NNK1; higher = more nucleation; inactive = no reads after selection
In short: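 On medium lacking adenine and uracil, psi-negative yeast expressing peptides of 20 random codons fused to Sup35N were grown 7 days at 30°C after a 24-hour induction with 100 μM copper sulfate. Illumina sequencing of input and output plasmid inserts gave the reads, and sequences under 100 input reads were excluded. The nucleation score is the DiMSum log enrichment of output over input reads, centred on the mode score of non-aggregating sequences.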

Row | Substance | amyloid nucleation score
1 | RSHVVTGYARSGRGLLATDM | 0.396 ± 0.45
2 | RSKNWMVNRDWGSKVDRLAN | 0.089 ± 0.86
3 | RSLFMAQVGHMWGRNVIRGI | -0.29 ± 1.7
4 | RSLRVA | -0.214 ± 1.2
5 | RSMSTIRIEGSESTSFISS | -0.812 ± 1.7
6 | RSMYSQCVLIMGAPTRISGL | 6.295 ± 0.054
7 | RSQKLGHIGRDTLQWGLYCS | -0.024 ± 0.38
8 | RSRSGC | 0.441 ± 0.51
9 | RSSLNTCWMGSYNVLGTRTG | 4.39 ± 0.11
10 | RSSNLVCYFFSVWWY | 2.02 ± 0.44
11 | RSSSCKWV | -0.53 ± 0.75
12 | RSSSDKPSKTTTWRMLAGTG | -0.113 ± 0.7
13 | RSSVVWLWSHYC | 0.588 ± 0.56
14 | RSVWDRWFDPIMTFEQESTW | -0.812 ± 1.7
15 | RSWPHGCVAEQNTCSPHKLA | 1.48 ± 0.55
16 | RSYLCDREYCVFGFCLGIYS | 3.44 ± 0.15
17 | RSYVVSPVNY | -1.18 ± 0.76
18 | RTCYNRDTEMSRGCYTMRVA | -0.554 ± 0.77
19 | RTNVWVAFVDSRSHGQFCQK | 3.68 ± 0.18
20 | RTRTFVNPAAAIHMPPSEET | 0.049 ± 0.29
21 | RTSDLFAIMKVLDIMMSYTE | inactive
22 | RTSPPFNTVYYTGEYEIIEI | -0.353 ± 0.54
23 | RTSSWPTLTHEALLRSGDLC | -0.637 ± 0.48
24 | RTTFA | 0.38 ± 0.33
25 | RTYSFC | -0.41 ± 0.93
26 | RVCKFKFYQFSSSKC | 3.75 ± 0.067

Row | Substance | amyloid nucleation score
27 | RVCQKCCPVVYAMNQWIFDW | 7.536 ± 0.051
28 | RVFLMCCVGEMLRMLQLSSD | 6.46 ± 0.073
29 | RVFSSFGFMKRRPVWTVWIT | -0.324 ± 0.81
30 | RVGYIYHYYLDNQG | -0.175 ± 0.38
31 | RVIWEGNAVQTSAWGSADPK | -0.264 ± 0.64
32 | RVMLKSDRFYYVLKTCAY | 1 ± 0.37
33 | RVQCNNMKVCGITIFLMRS | 6.516 ± 0.049
34 | RVQKNLINDFSESYPLCHWY | -0.553 ± 0.42
35 | RVSLSCIMKIYNFDKRVWLG | 0.521 ± 0.97
36 | RVSSHGLILHFDKDNSMIAV | 0.936 ± 0.61
37 | RVTPISCKYVLLTPMRLKNR | 2.35 ± 0.3
38 | RVYRYLPYRYERCLDL | -0.504 ± 0.93
39 | RWCMCVENRGMLVWGWNGFV | -0.245 ± 0.53
40 | RWGATRFVVTS | 0.304 ± 1.2
41 | RWGMFTWVYFMLYALWIMTL | 0.042 ± 0.44
42 | RWLETVGECCCESARVFCA | -0.45 ± 0.59
43 | RWSQNMGSKSVRGTKFNLKL | 0.846 ± 0.21
44 | RWVTLCRWVNVSSDGELGVR | 0.993 ± 0.35
45 | RYCQVP | 0.348 ± 0.43
46 | RYEGKVKHYFKFKIKPMQV | 0.809 ± 0.41
47 | RYFSWFYVN | -0.089 ± 0.93
48 | RYFVYLSVFDYFINHLDIRW | -0.79 ± 0.42
49 | RYGPAVLKSSGAAAVGHS | -0.59 ± 0.59
50 | RYISTLYEMNLKYVNVVQFH | 6.416 ± 0.045
51 | RYLSHHP | 0.609 ± 0.55
52 | RYLVALFSMYKWYGVEKDWK | 0.954 ± 0.54

Row | Substance | amyloid nucleation score
53 | RYMLFVFHSLTGYYIRRFVY | -1.22 ± 1
54 | RYRCSKVRRAMSKLTYVGMA | 4.18 ± 0.07
55 | RYRDYSRRIDCLCYVSVPVY | 0.564 ± 0.4
56 | RYSQTKDLKVLLQHFFIYKF | -1.23 ± 1.7
57 | RYSSLRWTISFDNLVVSFRP | 0.724 ± 0.68
58 | RYSWSYEKKWIDNLQLVLR | -0.609 ± 0.22
59 | RYTLILH | -0.355 ± 0.75
60 | SAAYQALLTNSYFSLFDVSW | 0.823 ± 0.21
61 | SACFMMGLDDWCDSR | -0.529 ± 0.35
62 | SACNYVRRNVAHVRLLSL | 0.564 ± 0.53
63 | SAGVTPLEMKSDRIREDAAG | 0.629 ± 1
64 | SARRTPCTVIL | 0.362 ± 1.4
65 | SAVLFIEFCVLIVVMFSIMM | -0.241 ± 1.2
66 | SAYPCCLSEDYVSSSGVSNK | 0.74 ± 0.48
67 | SAYSKILSLPVRMGVWVAHI | 0.658 ± 0.42
68 | SCDVTILGYLAMMKLDVMWV | -0.074 ± 0.34
69 | SCGLINWLRVYHLLSLNSGS | 2.31 ± 0.1
70 | SCHVTFKVFFLFAGPCREVL | 1.98 ± 0.27
71 | SCKRSA | 0.578 ± 0.4
72 | SCKVVILLPSVVKACLTVLP | 0.474 ± 0.95
73 | SCMMYQMCNWHERAPSTVLL | 0.908 ± 0.58
74 | SCNCHWY | 1.49 ± 0.74
75 | SCNHKNSRSHLALQS | 1.6 ± 0.44
76 | SCPRVTIFCCSGILGREWGK | 7.189 ± 0.045
77 | SCRRYSYKCSVL | -0.16 ± 1.4
78 | SCSVSNGVFCNHGRGCGFRL | 2.12 ± 0.18

Row | Substance | amyloid nucleation score
79 | SCSVYTGYSYGLRYNFDLVS | -1.81 ± 2.4
80 | SCTGCLFDTELRWISWVGLF | 0.074 ± 0.39
81 | SDCRKAFIMSHRSDGNLEFV | 0.382 ± 1.4
82 | SDDHVTVYNRDARRSRSCCL | inactive
83 | SDFLTWCDQSLRCVDRYPNA | 0.648 ± 0.97
84 | SDGRNHTANYPWG | -0.182 ± 0.65
85 | SDRGSKPMSVYNLRC | 0.305 ± 0.75
86 | SDRPMRFNFSNNAYDSHLYL | 0.511 ± 0.67
87 | SDSLFPTPLDFKMKIWGIMV | 0.062 ± 0.85
88 | SDTLCPSADWVRRSARCQVD | 0.8 ± 0.74
89 | SDTRYGLFVNWRFWDRGSGW | 0.238 ± 0.34
90 | SDTVWFPYKLITSLHQSAKW | 1.41 ± 0.14
91 | SDVKF | 2.95 ± 0.11
92 | SDYFYSGKGFFLAMGLSMSR | -1.5 ± 1.8
93 | SECYFSVWFANTALQNRV | 0.034 ± 0.4
94 | SEEYWVLDWIEVGLKGSLRM | -0.105 ± 0.55
95 | SEFASLERSHSHLYMWEFSL | 0.171 ± 0.63
96 | SERDRLSLMRRVAM | -0.153 ± 1.4
97 | SETFEHRLRD | -0.437 ± 0.28
98 | SETLTMFRYCISIRDKGPQG | 1.24 ± 0.37
99 | SEYAVNSGSITFFIHAVWCW | 0.349 ± 0.26
100 | SFAVHVGVANSSGSCLMLGG | 0.277 ± 0.3
101 | SFCLFNVIYQFIGKRCPNSG | 3.82 ± 0.1
102 | SFEDGGLMFMAPDIRGTGTR | 0.884 ± 0.79
103 | SFESVFRHCRVRCCYGKIRQ | 0.685 ± 0.31
104 | SFEWSSFTYFSNFWWLEPNT | 0.738 ± 0.65

Row | Substance | amyloid nucleation score
105 | SFFWDT | -0.524 ± 0.51
106 | SFHLSQFYKNTHMWLIVFES | inactive
107 | SFIELMMASRLF | 0.367 ± 0.35
108 | SFKGYVSWVGSPHRAVG | 0.425 ± 0.86
109 | SFPVQQIYF | 0.971 ± 0.49
110 | SFRACFGPWLFIALIPKNTV | -1.1 ± 0.61
111 | SFRCMEYSWGDWVINPPYLS | 0.234 ± 0.62
112 | SFSFKCDYYVPCRRYIFVIL | -1.3 ± 1.1
113 | SFSKYAGFARKWSMLRVASY | -0.337 ± 1.2
114 | SFSLSLVFRISPDGLGHFLQ | 0.412 ± 0.3
115 | SFSNVRNI | -1.52 ± 0.81
116 | SFTVVGLKLTIVRDNNS | 3.86 ± 0.12
117 | SFVCCFRLPWMGGTKNPMHV | 3.55 ± 0.19
118 | SFVNTNHRMRRCYTTENNPS | -0.796 ± 0.68
119 | SFVVTAEPSRAMNYSCFWKR | inactive
120 | SFYLFCPNCGRWTVFGEYS | -1 ± 0.31
121 | SFYYIWRGLVTSED | -0.779 ± 0.8
122 | SGAVIYANKFYVISCHNWSY | 7.478 ± 0.057
123 | SGDCVL | 1.43 ± 0.26
124 | SGGLNFLGLPVVFF | 0.173 ± 0.92
125 | SGGPGDAGRLRQ | -0.005 ± 0.91
126 | SGHGFLRQ | inactive
